Molecular target: the molecule itself
Experiment: cryo-EM structure; intact AcMNPV budded virions purified from Sf9 culture, TE buffer (50 mM Tris, 0.5 mM EDTA, pH 8.7); helical reconstruction (C14, 4.2 Å) and localized reconstruction of four neighbouring VP39 dimers of the tube (3.1 Å)

B1: major capsid protein (MCP) (natural protein)
chain: MALVPVGMAPRQMRVNRCIFASIVSFDACITYKSPCSPDAYHDDGWFICNNHLIKRFKMSKMVLPIFDEDDNQFKMTIARHLVGNKERGIKRILIPSATNYQDVFNLNSMMQAEQLIFHLIYNNENAVNTICDNLKYTEGFTSNTQRVIHSVYATTKSILDTTNPNTFCSRVSRDELRFFDVTNARALRGGAGDQLFNNYSGFLQNLIRRAVAPEYLQIDTEELRFRNCATCIIDETGLVASVPDGPELYNPIRSSDIMRSQPNRLQIRNVLKFEGDTRELDRTLSGYEEYPTYVPLFLGYQIINSENNFLRNDFIPRANPNATLGGGAVAGPAPGVAGEAGGGIAV
notes: Major capsid protein VP39 (AC89) of Autographa californica multiple nucleopolyhedrovirus, as it stands in the budded virion; the model comprises Val15 to Asn320 (loop Asp27 to Ser34 built only in some subunits); the last 30 residues are not visible; Native protein in the nucleocapsid of intact budded virions; contains a CCCH zinc finger; also called VP39; AC89; source: AcMNPV budded virions …
- stoichiometry N: 2

Reference: publication PMC11654684, “The nucleocapsid architecture and structural atlas of the prototype baculovirus define the hallmarks of a new viral realm” (Science Advances, 2024)
